The source of these data is US20240368233A1 (University of Washington, published 2024).

One series deals with T1, LHD274 B62.
T1 construct: also called LHD274 B DHR62 C
T1 single chain, LHD274 chain B fused to DHR62: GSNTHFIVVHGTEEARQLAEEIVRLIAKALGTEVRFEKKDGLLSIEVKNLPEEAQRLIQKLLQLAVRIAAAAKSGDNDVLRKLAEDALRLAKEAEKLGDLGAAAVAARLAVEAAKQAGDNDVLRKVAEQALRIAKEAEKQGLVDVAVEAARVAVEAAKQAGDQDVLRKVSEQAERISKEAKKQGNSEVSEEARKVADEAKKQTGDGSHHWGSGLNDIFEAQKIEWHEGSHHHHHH
The series is described as follows: SEC binding assay (Superdex 200, normalised A230) of A, B and the mixture AB. As for the experimental part:
(§1) Complexes and individual components were diluted in 20 mM Tris pH 8.0, 100 mM NaCl. After o/n equilibration of the mixtures at room temperature or 4 degrees C., 500 ul of sample was injected onto a Superdex™ 200 10/300 increase GL (dimers, linear assemblies) or Superose™ 6 increase 10/300 GL (symmetric assemblies) (all columns from GE healthcare) using the absorbance at 230 nm or 473 nm (for GFP tagged components) as read-out. Dimers were mixed at monomer concentrations of 5 μM or higher. Trimer and ABCD tetramer mixtures contained 5 μM of the bivalent connector, and 7.5 μM of each terminal cap (lower absolute concentrations with the same ratios were used for some trimers). ABCA tetramer mixtures contained 5 μM per bivalent connector and 15 μM terminal cap. The hexamer mixture contained 3 μM of components C and D, 3.6 μM of B and E, and 4.4 μM of A and F. The branched assembly shown in FIG. 4A contained 2.8 μM of the trivalent connector and 4 μM of each cap. For the exchange experiment shown in FIG. 5A, the ABC trimer was preincubated at concentrations of 6 μM B and 9 μM each of A and C. C′ was then added to reach a final concentration of 2 μM B, 3 μM each of A and C, and 6 μM C′.

In the next series the target is T2, 274B53.
T2 construct: also called LHD274B DHR53 stop
T2 chain: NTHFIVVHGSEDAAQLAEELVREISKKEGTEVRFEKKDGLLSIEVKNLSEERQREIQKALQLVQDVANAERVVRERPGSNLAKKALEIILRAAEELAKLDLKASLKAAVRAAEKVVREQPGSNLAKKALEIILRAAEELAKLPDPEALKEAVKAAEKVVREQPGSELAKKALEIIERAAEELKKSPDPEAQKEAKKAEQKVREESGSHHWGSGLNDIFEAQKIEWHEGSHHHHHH
The series is described as above. The protocol:
as §1

A further series concerns the target T3, DF275A-1.
T3 construct: Bivalent connector
T3 chain: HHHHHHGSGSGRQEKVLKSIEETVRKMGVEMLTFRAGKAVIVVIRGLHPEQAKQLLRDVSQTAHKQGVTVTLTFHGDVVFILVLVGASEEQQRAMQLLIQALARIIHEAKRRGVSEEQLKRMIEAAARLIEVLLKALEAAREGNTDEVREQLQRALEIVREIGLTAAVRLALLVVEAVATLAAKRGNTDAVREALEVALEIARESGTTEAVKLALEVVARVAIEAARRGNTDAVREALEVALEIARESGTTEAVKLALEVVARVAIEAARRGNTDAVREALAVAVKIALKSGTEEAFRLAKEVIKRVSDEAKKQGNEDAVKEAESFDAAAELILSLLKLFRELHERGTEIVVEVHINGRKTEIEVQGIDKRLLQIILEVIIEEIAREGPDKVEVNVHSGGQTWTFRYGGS
The series is described as follows: SEC of mixed components; trimer listed in Table 6. As for the experimental part: as §1

The next series has as its target T4, DFA0.
T4 construct: Bivalent connector
T4 chain: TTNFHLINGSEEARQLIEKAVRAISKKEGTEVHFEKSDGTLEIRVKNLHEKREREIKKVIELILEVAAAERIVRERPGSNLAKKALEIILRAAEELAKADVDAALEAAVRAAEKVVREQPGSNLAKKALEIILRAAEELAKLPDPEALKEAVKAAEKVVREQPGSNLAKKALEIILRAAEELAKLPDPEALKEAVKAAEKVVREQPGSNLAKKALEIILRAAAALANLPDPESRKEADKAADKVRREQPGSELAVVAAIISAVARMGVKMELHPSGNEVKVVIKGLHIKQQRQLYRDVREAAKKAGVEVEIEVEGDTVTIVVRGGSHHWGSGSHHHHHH
As to the kind of experiment: SEC of mixed components; trimer listed in Table 6. The protocol:
as §1

Series [1] concerns the molecule itself. As to the kind of experiment: SEC titration of the protomer alone at several injection concentrations (Superdex 200, normalised A230); self-association.
For another series, the target named is T5, DFX.
T5 construct: Bivalent connector
T5 chain: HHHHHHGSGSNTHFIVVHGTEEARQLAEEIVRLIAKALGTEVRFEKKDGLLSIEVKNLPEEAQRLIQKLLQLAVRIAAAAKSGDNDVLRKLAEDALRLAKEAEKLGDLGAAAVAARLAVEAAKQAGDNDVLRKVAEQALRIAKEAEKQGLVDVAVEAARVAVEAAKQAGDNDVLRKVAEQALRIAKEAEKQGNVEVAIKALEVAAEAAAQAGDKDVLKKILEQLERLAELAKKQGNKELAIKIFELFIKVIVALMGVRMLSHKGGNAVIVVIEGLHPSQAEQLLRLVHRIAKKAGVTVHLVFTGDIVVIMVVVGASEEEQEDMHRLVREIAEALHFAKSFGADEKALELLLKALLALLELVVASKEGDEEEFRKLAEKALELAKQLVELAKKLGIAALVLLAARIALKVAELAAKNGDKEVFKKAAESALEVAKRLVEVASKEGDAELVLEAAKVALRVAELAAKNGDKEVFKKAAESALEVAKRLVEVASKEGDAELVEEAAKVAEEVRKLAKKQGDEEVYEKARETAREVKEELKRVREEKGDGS
As to the kind of experiment: negative-stain EM of the heterotrimer; components named in the legend. As for the experimental part:
(§2) SEC peak fractions were concentrated prior to negative stain EM screening. Samples were then immediately diluted 5 to 150 times in TBS buffer (25 mM Tris pH 8.0, 25 mM NaCl) depending on sample concentration. A final volume of 5 μL was applied to negatively glow discharged, carbon-coated 400-mesh copper grids (01844-F, TedPella, Inc.), then washed with Milli-Q™ Water and stained using 0.75% uranyl formate as previously described (53). Air-dried grids were imaged on a FEI Talos L120C TEM (FEI Thermo Scientific, Hillsboro, OR) equipped with a 4K×4K Gatan OneView™ camera at a magnification of 57,000× and pixel size of 2.51. Micrographs were imported into CisTEM software or cryoSPARC™ software and a circular blob picker was used to select particles which were then subjected to 2D classification. Ab initio reconstruction and homogeneous refinement in Cn symmetry were used to generate 3D electron density maps (54, 55).

The next series deals with T6, TF10.
T6 construct: Trivalent connector
T6 chain: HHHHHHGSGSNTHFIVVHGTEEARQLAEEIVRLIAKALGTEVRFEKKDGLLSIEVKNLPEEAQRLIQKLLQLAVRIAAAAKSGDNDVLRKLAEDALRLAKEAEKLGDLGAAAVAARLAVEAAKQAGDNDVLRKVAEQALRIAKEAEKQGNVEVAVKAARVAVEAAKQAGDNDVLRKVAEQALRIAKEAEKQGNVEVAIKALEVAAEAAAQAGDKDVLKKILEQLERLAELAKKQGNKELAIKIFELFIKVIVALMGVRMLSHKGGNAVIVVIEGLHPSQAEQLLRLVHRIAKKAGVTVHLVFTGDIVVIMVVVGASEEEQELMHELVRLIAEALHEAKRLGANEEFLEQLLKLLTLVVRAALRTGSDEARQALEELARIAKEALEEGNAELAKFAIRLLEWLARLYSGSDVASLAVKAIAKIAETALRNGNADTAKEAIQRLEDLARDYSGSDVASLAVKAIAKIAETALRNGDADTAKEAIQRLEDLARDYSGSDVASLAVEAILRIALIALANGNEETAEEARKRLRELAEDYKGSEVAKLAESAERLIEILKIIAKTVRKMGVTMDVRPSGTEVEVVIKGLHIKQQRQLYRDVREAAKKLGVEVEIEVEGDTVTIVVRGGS
As to the kind of experiment: SEC (A230) of A---, -BCD and ABCD and negative-stain EM; components named in the legend of FIG. 17A, which paragraph 104 ties to FIG. 4A. The protocol: as §1
as §2, with “Ab initio reconstruction and homogeneous refinement in Cn symmetry were used to generate 3D electron density maps (54, 55).” left out

A further series concerns the target T7, 101B62.
T7 construct: also called LHD101B62
T7 chain: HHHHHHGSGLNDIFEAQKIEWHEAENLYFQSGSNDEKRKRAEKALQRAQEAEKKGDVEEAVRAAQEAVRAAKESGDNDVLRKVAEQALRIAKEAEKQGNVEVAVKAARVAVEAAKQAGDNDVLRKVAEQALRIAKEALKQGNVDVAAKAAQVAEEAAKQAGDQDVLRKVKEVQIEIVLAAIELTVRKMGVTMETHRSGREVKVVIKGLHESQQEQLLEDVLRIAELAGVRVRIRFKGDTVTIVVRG
As to the kind of experiment: SEC of mixed components; linear tetramer listed in Table 6, neighbours in the chain. The protocol: as §1

B1: LHD274 A64 (designed binder)
single chain, LHD274 chain A fused to DHR64: GSTTNFHLINGSEEARQLIQKAVEAISKKEGTEVHFEKSDGTLEIRVKNLHPRQEDLIKKFIEALLLALVAKGELEQAEKEGDAEVALRAVEKVVRVAELLLRLAKEAGSEEALKAALEIAEQAARLAKRVLELAEKQGDAEVALRAVELVVRVAELLLRIAKESGSEEALERALRVAEEAARLAKRVLELAEKQGDAEVARRAVELVKRVAELLERIARESGSEEAKERAERVREEARELQERVKELREREGDGSHHWGSGLNDIFEAQKIEWHEGSHHHHHH
As for B1, the binding result with LHD274 B62 and with 274B53 was “binds” throughout.

B2: 206B62-2 (designed binder)
chain: HHHHHHGSGLNDIFEAQKIEWHEAENLYFQSGSNDEKRKRAEKALQRAQEAEKKGDVEEAVRAAQEAVRAAKESGDNDVLRKVAEQALRIAKEAEKQGNVEVAVKAARVAVEAAKQAGDNDVLRKVAEQALRIAKEAEKQGNVPVAVKALLVALNAAVAAGDQDVLRKISEQAERARKLAEKQGDKLLAFVLALISLVAQMGVPMEIHPSGNEVKVVIKGLHKSQQEQLLKLVLKLANKLGVNVHISFRGDTVTIRVRGGS
With B2, the binding result with DF275A-1 is “binds”.

B3: 101B82 (designed binder)
chain: HHHHHHGSGLNDIFEAQKIEWHEAENLYFQSGSDEEVQEAVERAEELREEAEELIKKARKTGDAELLRKALEALEEAVRAVEEAIKRNPDNDEAVETAVRLARELKKVAEELQERAKKTGDAELLKLALRALEVAVRAVELAIKSNPDNDEAVETAVRLARELAKVAEELIERAKKTGDKELLKLAKRALEVAMRAVSLALKSNPDNEEARRVAAELVLLVIRAAVIEMGVTMEEHRSGNRVKVVIKGLHESQQEQLLEDVLRAAEIAGVRVRIRFKGDTVTIVVEG
As to B3, the binding result with DFA0 was “binds”.

B4: 317B (designed binder)
chain: GGSDVEWRFTNVSEEEQEKLARFVLQVAQLAGTQVIFTTRPGELRIRVHNLDELLALAIELYAQGLRLGDKHVQHLAKKAIEAILRGDRKLARFLLEAARAMSRATERPGSNLAKKALEEILRLAEELAKDPDPESLKAAVHCAEFVVRYQPGSNLAKKALEIILRAAEELAKLPDPEALKEAVKAAEKVVREQPGSELAKKALEIIERAAEELKKSPDPEAQKEAKKAEQKVREERPGSGGSGSHHWGSGSHHHHHH
notes: also called LHD317 B; LHD317B
For the molecule B4, the binding result (in series [1]; with DFX; with TF10) was “binds” in each case.

B5: DF206 (designed binder)
chain: NTHFIVVHGTEEARQLAEEIVRLIAEALGTEVRFEKKDGLLSIEVKNLPEEAQRLIQKLLQLAVRIAAAAESGDNDQLRELAEDALRLAEEAEKLGDLGAAAVAARLAVEAAKQAGDNDVLREVAEQALEIAKEAEKQGLVDVAVEAARVAVEAAKQAGDNDVLRKVAEQALRIAKEAEKQGNVEVAVKAARVAVEAAKQAGDNDVLRKVAEQALRIAKEAEKQGNVEVAALALVVAVNAAQAAGDQDLLRKIAEQAERLAKLAEKQGRRDVALLASIIALVAKMGVPMEVHPSGNEVKVVIKGLHKSQQEQLLKEVLKAANKLGVNVHISFRGDTVTIRVRGGGSHHWGSGSHHHHHH
notes: Bivalent connector
For B5, the binding result in the series with DF275A-1 is given as “binds”.

B6: DFB0 (designed binder)
chain: NTHFIVVHGSEDAAQLAEELVREISKKEGTEVRFEKKDGLLSIEVKNLSEERQREIQKALQLVQDVANAERVVRERPGSNLAKKALEIILRAAEELAKLDLKASLKAAVRAAEKVVREQPGSNLAKKALEIILRAAEELAKLPDPEALKEAVKAAEKVVREQPGSNLAKKALEIILRAAEELAKLPDPEALKEAVKAAEKVVREQPGSNLAKKALEIILRAAAALANLPDPESRKEADKAADKVRREQPGSELAVVAAIISAVARMGVKMELHPSGNEVKVVIKGLHIKQQRQLYRDVREAAKKAGVEVEIEVEGDTVTIVVRGGSHHWGSGSHHHHHH
notes: Bivalent connector
Turning to B6, the binding result in the series with 101B62 is recorded as “binds”.
